Biological target: ARTS-VN (UniProt O43236)
Assay: split reporter

percent decrease of the BiFC signal compared to WT Bcl-2: 47%
Substance: Bcl-2delBH3-VC (from UniProt P10415 1-239) (natural protein)
